Measured values as given in patent US20110008345A1 (GlaxoSmithKline, published 2011).
Values joined by “and” are separate entries in the source; they are usually repeats but may differ in a detail not shown here. Equal values may be shown once. Values belong to the binder of their own block, whether it stands above or below them.

Assays:
[1] = biological target: T1, recombinant E. coli-expressed cynomolgus IL-13 (cynomolgus, UniProt Q0PW92 21-132); assay: SPR
T1 construct: also called cyno IL-13

[2] = biological target: T2, recombinant E. coli-expressed cynomolgus IL-4 (cynomolgus, UniProt P79339 25-153); assay: SPR
T2 construct: also called cyno IL-4
T2 sequence (looked up): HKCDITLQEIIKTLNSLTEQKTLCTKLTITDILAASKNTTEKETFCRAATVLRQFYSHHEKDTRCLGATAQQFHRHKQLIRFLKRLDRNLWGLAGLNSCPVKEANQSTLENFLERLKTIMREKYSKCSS

[3] = biological target: T3, recombinant E. coli-expressed human IL-13 (human, UniProt P35225 35-146); assay: SPR exp 1
T3 construct: made and purified at GSK; also called Interleukin-13; rhIL-13

[4] = biological target: T4, recombinant E. coli-expressed human IL-4 (human, UniProt P05112 25-153); assay: SPR exp 1
T4 construct: made and purified at GSK; also called Interleukin-4; rhIL-4
T4 sequence: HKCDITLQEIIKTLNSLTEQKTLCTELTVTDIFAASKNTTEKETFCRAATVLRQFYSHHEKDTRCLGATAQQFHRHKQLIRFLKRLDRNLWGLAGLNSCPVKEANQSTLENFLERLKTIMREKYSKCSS

[5] = biological target: T4, recombinant E. coli-expressed human IL-4; assay: SPR exp 2
[6] = biological target: T3, recombinant E. coli-expressed human …; assay: SPR exp 2
[7] = biological target: T4, recombinant E. coli-expressed human IL-4; assay: SPR, purified
[8] = biological target: T3, recombinant E. coli-expressed human …; assay: SPR, purified
[9] = biological target: T4, recombinant E. coli-expressed human IL-4; assay: SPR stoichiometry
[10] = biological target: T3, recombinant E. coli-expressed human …; assay: SPR stoichiometry
[11] = biological target: T5, recombinant human VEGF (human, UniProt P15692-4 27-191); assay: ELISA
T5 construct: also called VEGF165; hVEGF165

[12] = biological target: T3, recombinant E. coli-expressed human …; assay: SPR
[13] = biological target: T3, recombinant E. coli-expressed human …; assay: SPR; remark: listed apart in the source
[14] = biological target: T4, recombinant E. coli-expressed human IL-4; assay: ELISA, IL-4 binding to IL4Ralpha-Fc
[15] = biological target: T4, recombinant E. coli-expressed human IL-4; assay: ELISA

- Kd [5]: 0.041 nM and 0.06 nM
- koff [5]: 0.000121 s⁻¹ and 0.000152 s⁻¹
- kon [5]: 2.95e+06 M⁻¹ s⁻¹ and 2.54e+06 M⁻¹ s⁻¹
- Kd [6]: 0.451 nM and 0.595 nM
- koff [6]: 0.000238 s⁻¹ and 0.00032 s⁻¹
- kon [6]: 526000 M⁻¹ s⁻¹ and 538000 M⁻¹ s⁻¹
B5: PascoL-ASTKG-474 (bispecific antibody, human IgG1, kappa)
heavy: not shown
light: DIVLTQSPSSLSASVGDRVTITCKASQSVDYDGDSYMNWYQQKPGKAPKLLIYAASNLESGIPSRFSGSGSGTDFTFTISSLQPEDIATYYCQQSNEDPPTFGQGTKVEIKRTVAAPSVFIFPPSDEQLKSGTASVVCLLNNFYPREAKVQWKVDNALQSGNSQESVTEQDSKDSTYSLSSTLTLSKADYEKHKVYACEVTHQGLSSPVTKSFNRGECASTKGPTGSGVQLLESGGGLVQPGGSLRLSCAASGFTFAWYDMGWVRQAPGKGLEWVSSIDWHGEVTYYADSVKGRFTISRDNSKNTLYLQMNSLRAEDTAVYYCATAEDEPGYDYWGQGTLVTVSS

- binding result [11]: binds
B6: BPC1803 (bispecific antibody, human IgG1, kappa)
heavy: not shown
light: DIVMTQSPLSLPVTPGEPASISCRSSQSIVQSNGDTYLEWYLQKPGQSPQLLIYRVSNRFSGVPDRFSGSGSGTDFTLKISRVEAEDVGVYYCFQGSHVPYTFGQGTKLEIKRTVAAPSVFIFPPSDEQLKSGTASVVCLLNNFYPREAKVQWKVDNALQSGNSQESVTEQDSKDSTYSLSSTLTLSKADYEKHKVYACEVTHQGLSSPVTKSFNRGEC
notes: anti-VEGF tear lipocalin fusion; also called antiIGF1R Heavy Chain-GS-TLPC

- binding result [11]: binds
B7: BPC1804 (bispecific antibody, human IgG1, kappa)
heavy: not shown
light: DIVMTQSPLSLPVTPGEPASISCRSSQSIVQSNGDTYLEWYLQKPGQSPQLLIYRVSNRFSGVPDRFSGSGSGTDFTLKISRVEAEDVGVYYCFQGSHVPYTFGQGTKLEIKRTVAAPSVFIFPPSDEQLKSGTASVVCLLNNFYPREAKVQWKVDNALQSGNSQESVTEQDSKDSTYSLSSTLTLSKADYEKHKVYACEVTHQGLSSPVTKSFNRGEC
notes: anti-VEGF tear lipocalin fusion

- binding result [12]: no binding
B8: anti-CD20 mAb (antibody, human IgG1, kappa, V domains shown)
VH: QVQLQQPGAELVKPGASVKMSCKASGYTFTSYNMHWVKQTPGRGLEWIGAIYPGNGDTSYNQKFKGKATLTADKSSSTAYMQLSSLTSEDSAVYYCARSTYYGGDWYFNVWGAGTLVTVSS
VL: QIVLSQSPAILSASPGEKVTMTCRASSSVSYIHWFQQKPGSSPKPWIYATSNLASGVPVRFSGSGSGTSYSLTISRVEAEDAATYYCQQWTSNPPTFGGGTKLEIKR
notes: also called Rituxan; anti-CD20 control antibody

- Kd [5]: 0.139 nM and 0.127 nM
- koff [5]: 0.000258 s⁻¹ and 0.000318 s⁻¹
- kon [5]: 1.86e+06 M⁻¹ s⁻¹ and 2.51e+06 M⁻¹ s⁻¹
- Kd [6]: 0.801 nM and 0.815 nM
- koff [6]: 0.000334 s⁻¹ and 0.000286 s⁻¹
- kon [6]: 417000 M⁻¹ s⁻¹ and 351000 M⁻¹ s⁻¹
B9: PascoL-EPKSC-474 (bispecific antibody, human IgG1, kappa)
heavy: not shown
light: DIVLTQSPSSLSASVGDRVTITCKASQSVDYDGDSYMNWYQQKPGKAPKLLIYAASNLESGIPSRFSGSGSGTDFTFTISSLQPEDIATYYCQQSNEDPPTFGQGTKVEIKRTVAAPSVFIFPPSDEQLKSGTASVVCLLNNFYPREAKVQWKVDNALQSGNSQESVTEQDSKDSTYSLSSTLTLSKADYEKHKVYACEVTHQGLSSPVTKSFNRGECEPKSCDKTHTCPPCPGSGVQLLESGGGLVQPGGSLRLSCAASGFTFAWYDMGWVRQAPGKGLEWVSSIDWHGEVTYYADSVKGRFTISRDNSKNTLYLQMNSLRAEDTAVYYCATAEDEPGYDYWGQGTLVTVSS

More lines, now with the values behind:

B1: PascoH-TVAAPS-474 (bispecific antibody, human IgG1, kappa)
heavy: not shown
light: DIVLTQSPSSLSASVGDRVTITCKASQSVDYDGDSYMNWYQQKPGKAPKLLIYAASNLESGIPSRFSGSGSGTDFTFTISSLQPEDIATYYCQQSNEDPPTFGQGTKVEIKRTVAAPSVFIFPPSDEQLKSGTASVVCLLNNFYPREAKVQWKVDNALQSGNSQESVTEQDSKDSTYSLSSTLTLSKADYEKHKVYACEVTHQGLSSPVTKSFNRGEC
- Kd [1]: 27.1 nM
- koff [1]: 0.0117 s⁻¹
- kon [1]: 433000 M⁻¹ s⁻¹
- Kd [2]: 0.0491 nM
- koff [2]: 8.85e-05 s⁻¹
- kon [2]: 1.8e+06 M⁻¹ s⁻¹
- Kd [3]: 0.94 nM
- koff [3]: 0.00042 s⁻¹
- kon [3]: 450000 M⁻¹ s⁻¹
- Kd [4]: 0.02 nM
- koff [4]: 9.7e-05 s⁻¹
- kon [4]: 5.5e+06 M⁻¹ s⁻¹

B2: PascoH-ASTKG-474 (bispecific antibody, human IgG1, kappa)
heavy: not shown
light: DIVLTQSPSSLSASVGDRVTITCKASQSVDYDGDSYMNWYQQKPGKAPKLLIYAASNLESGIPSRFSGSGSGTDFTFTISSLQPEDIATYYCQQSNEDPPTFGQGTKVEIKRTVAAPSVFIFPPSDEQLKSGTASVVCLLNNFYPREAKVQWKVDNALQSGNSQESVTEQDSKDSTYSLSSTLTLSKADYEKHKVYACEVTHQGLSSPVTKSFNRGEC
- Kd [1]: 29.5 nM
- koff [1]: 0.0107 s⁻¹
- kon [1]: 364000 M⁻¹ s⁻¹
- Kd [2]: 0.0445 nM
- koff [2]: 7.9e-05 s⁻¹
- kon [2]: 1.78e+06 M⁻¹ s⁻¹
- Kd [3]: 1.5 nM
- koff [3]: 0.00046 s⁻¹
- kon [3]: 310000 M⁻¹ s⁻¹
- Kd [4]: 0.02 nM
- koff [4]: 8.6e-05 s⁻¹
- kon [4]: 5.3e+06 M⁻¹ s⁻¹

B3: PascoL-474 (bispecific antibody, human IgG1, kappa)
heavy: not shown
light: DIVLTQSPSSLSASVGDRVTITCKASQSVDYDGDSYMNWYQQKPGKAPKLLIYAASNLESGIPSRFSGSGSGTDFTFTISSLQPEDIATYYCQQSNEDPPTFGQGTKVEIKRTVAAPSVFIFPPSDEQLKSGTASVVCLLNNFYPREAKVQWKVDNALQSGNSQESVTEQDSKDSTYSLSSTLTLSKADYEKHKVYACEVTHQGLSSPVTKSFNRGECGSGVQLLESGGGLVQPGGSLRLSCAASGFTFAWYDMGWVRQAPGKGLEWVSSIDWHGEVTYYADSVKGRFTISRDNSKNTLYLQMNSLRAEDTAVYYCATAEDEPGYDYWGQGTLVTVSS
- Kd [5]: 0.065 nM and 0.048 nM
- koff [5]: 0.000184 s⁻¹ and 0.000122 s⁻¹
- kon [5]: 2.8e+06 M⁻¹ s⁻¹ and 2.53e+06 M⁻¹ s⁻¹
- Kd [6]: 1.34 nM and 1.24 nM
- koff [6]: 0.000382 s⁻¹ and 0.000386 s⁻¹
- kon [6]: 286000 M⁻¹ s⁻¹ and 312000 M⁻¹ s⁻¹

B4: PascoHL-G4S-474 (bispecific antibody, human IgG1, kappa)
heavy: not shown
light: DIVLTQSPSSLSASVGDRVTITCKASQSVDYDGDSYMNWYQQKPGKAPKLLIYAASNLESGIPSRFSGSGSGTDFTFTISSLQPEDIATYYCQQSNEDPPTFGQGTKVEIKRTVAAPSVFIFPPSDEQLKSGTASVVCLLNNFYPREAKVQWKVDNALQSGNSQESVTEQDSKDSTYSLSSTLTLSKADYEKHKVYACEVTHQGLSSPVTKSFNRGECGGGGSGVQLLESGGGLVQPGGSLRLSCAASGFTFAWYDMGWVRQAPGKGLEWVSSIDWHGEVTYYADSVKGRFTISRDNSKNTLYLQMNSLRAEDTAVYYCATAEDEPGYDYWGQGTLVTVSS
- Kd [7]: 0.035 nM
- Kd [8]: 0.87 nM
- Stoichiometry [9]: 1.7
- Stoichiometry [10]: 3.5

B10: 586H-210 (bispecific antibody, human IgG1, kappa)
heavy: not shown
light: DIVMTQSPLSLPVTPGEPASISCRSSQNIVHINGNTYLEWYLQKPGQSPRLLIYKISDRFSGVPDRFSGSGSGTDFTLKISRVEADDVGIYYCFQGSHVPWTFGQGTKLEIKRTVAAPSVFIFPPSDEQLKSGTASVVCLLNNFYPREAKVQWKVDNALQSGNSQESVTEQDSKDSTYSLSSTLTLSKADYEKHKVYACEVTHQGLSSPVTKSFNRGEC
- Kd [13]: 0.44 nM
- IC50 [14]: 26.8 nM

B11: 586H-ELQLE-210 (bispecific antibody, human IgG1, kappa)
heavy: not shown
light: DIVMTQSPLSLPVTPGEPASISCRSSQNIVHINGNTYLEWYLQKPGQSPRLLIYKISDRFSGVPDRFSGSGSGTDFTLKISRVEADDVGIYYCFQGSHVPWTFGQGTKLEIKRTVAAPSVFIFPPSDEQLKSGTASVVCLLNNFYPREAKVQWKVDNALQSGNSQESVTEQDSKDSTYSLSSTLTLSKADYEKHKVYACEVTHQGLSSPVTKSFNRGEC
- Kd [13]: 0.43 nM
- binding result [15]: binds

B12: 586H-EPKSC-210 (bispecific antibody, human IgG1, kappa)
heavy: not shown
light: DIVMTQSPLSLPVTPGEPASISCRSSQNIVHINGNTYLEWYLQKPGQSPRLLIYKISDRFSGVPDRFSGSGSGTDFTLKISRVEADDVGIYYCFQGSHVPWTFGQGTKLEIKRTVAAPSVFIFPPSDEQLKSGTASVVCLLNNFYPREAKVQWKVDNALQSGNSQESVTEQDSKDSTYSLSSTLTLSKADYEKHKVYACEVTHQGLSSPVTKSFNRGEC
- Kd [13]: 0.43 nM
- binding result [15]: binds

B13: 586H-G4S-210 (bispecific antibody, human IgG1, kappa)
heavy: not shown
light: DIVMTQSPLSLPVTPGEPASISCRSSQNIVHINGNTYLEWYLQKPGQSPRLLIYKISDRFSGVPDRFSGSGSGTDFTLKISRVEADDVGIYYCFQGSHVPWTFGQGTKLEIKRTVAAPSVFIFPPSDEQLKSGTASVVCLLNNFYPREAKVQWKVDNALQSGNSQESVTEQDSKDSTYSLSSTLTLSKADYEKHKVYACEVTHQGLSSPVTKSFNRGEC
- Kd [13]: 0.42 nM
- IC50 [14]: 29.9 nM

B14: 586H-ASTKG-210 (bispecific antibody, human IgG1, kappa)
heavy: not shown
light: DIVMTQSPLSLPVTPGEPASISCRSSQNIVHINGNTYLEWYLQKPGQSPRLLIYKISDRFSGVPDRFSGSGSGTDFTLKISRVEADDVGIYYCFQGSHVPWTFGQGTKLEIKRTVAAPSVFIFPPSDEQLKSGTASVVCLLNNFYPREAKVQWKVDNALQSGNSQESVTEQDSKDSTYSLSSTLTLSKADYEKHKVYACEVTHQGLSSPVTKSFNRGEC
- Kd [13]: 0.4 nM
- IC50 [14]: 27.3 nM
